Data on three molecules can be found in paper PMC11048322, “Weak Value Amplification-Based Biochip for Highly Sensitive Detection and Identification of Breast Cancer Exosomes”.

What all share (conditions): protein: native; label: Au NP (about 58 nm) via thiol
The target of series [1] is T1, CD63 (on MDA-MB-231 exosomes) (UniProt P08962 2-238). As to the kind of experiment: weak value amplification optical biosensor; TEM; multivalent Au NP-aptamer on exosomes; Au NP-aptamer dispersed in ultrapure water, flowed over exosomes captured on Zr-ionized glass; pH and temperature not stated.
The target of series [2] is T1, CD63 (on MDA-MB-231 exosomes). Description: weak value amplification optical biosensor; multivalent Au NP-aptamer on exosomes; no significant CW shift; Au NP-aptamer dispersed in ultrapure water, flowed over exosomes captured on Zr-ionized glass; pH and temperature not stated.
Series [3] concerns the target T2, EpCAM (on MDA-MB-231 exosomes) (UniProt P16422 24-314).
T2 sequence: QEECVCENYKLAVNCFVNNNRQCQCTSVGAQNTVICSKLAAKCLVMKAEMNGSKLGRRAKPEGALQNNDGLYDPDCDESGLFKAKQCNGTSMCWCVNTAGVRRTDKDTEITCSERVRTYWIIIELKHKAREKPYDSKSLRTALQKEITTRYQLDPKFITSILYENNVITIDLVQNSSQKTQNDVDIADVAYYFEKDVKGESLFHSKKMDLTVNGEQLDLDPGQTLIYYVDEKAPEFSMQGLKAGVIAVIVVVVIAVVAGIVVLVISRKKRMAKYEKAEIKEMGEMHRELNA
As to the kind of experiment: weak value amplification optical biosensor; multivalent Au NP-aptamer on exosomes; CW shift about 0.85 nm; Au NP-aptamer dispersed in ultrapure water, flowed over exosomes captured on Zr-ionized glass; pH and temperature not stated.

T1 sequence (P08962 2-238): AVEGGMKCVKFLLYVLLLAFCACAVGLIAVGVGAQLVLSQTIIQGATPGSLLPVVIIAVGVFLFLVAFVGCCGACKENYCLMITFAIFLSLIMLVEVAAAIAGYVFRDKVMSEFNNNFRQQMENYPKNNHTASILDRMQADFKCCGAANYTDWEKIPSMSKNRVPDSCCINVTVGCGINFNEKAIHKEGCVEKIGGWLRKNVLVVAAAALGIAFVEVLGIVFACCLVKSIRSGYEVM

For the molecule CACCCCACCTCGCTCCCGTGACACTAATGCTA (ssDNA, 5'-SH C6) [CD63 aptamer], in series [1], the binding result was “binds”.

For the molecule ACTCTTCACCCGCACATTCGCATCGCCCAAGC (ssDNA, 5'-SH C6) [Scrambled CD63 (SCD63)], in series [2], the binding result is on record as “no binding”.

For the molecule CACTACAGAGGTTGCGTCTGTCCCACGTTGTCATGGGGGGTTGGCCTG (ssDNA, 5'-SH C6) [EpCAM aptamer], in series [3], the binding result is on record as “binds”.
